According to the DeepSol protein solubility set:

Assay: soluble on expression in E. coli; label from the status in PepcDB or PDB records

Sequence | soluble on expression in E. coli
MLLLQFSNMVEPTGPAIVEDERTKALNSYRRKLAECRDIEQKLKDLRKKESEMTKQFDKSENDIKSLQSVGQIVGEVLKQLSEEKFIVKATNGPRYVVGCRRSINKEELKQGTRVSLDMTTLTIMRQLPREVDPLVYKMSHEDPGNISYSDVGGLAEQIRELREVVELPLINPELFKRVGITPPKGCLLFGPPGTGKTLLARAVASQLDCNFLKVVSSAIVDKYIGESARMIREMFNYARDHQPCIVFMDEIDAIGGRRFSEGTSADREIQRTLMELLNQLDGFDSLGKVKVIMATNRPDTLDPALLRPGRLDRKIEIGLPNEQSRLEILKIHSNKITKHGEIDFEAVVKLSDGFSAADLRNVCTEAGMFAIRAEREFVIDEDFMKAVRKVGDAKRLETKLDYKPV | not soluble
MGSDKIHHHHHHMRDNTHSLEGVARLLLRSEAVASSRIEGIAPNSDKVAMAILARESDSEIRGFKESATAVARNVAILDTINADLAYKDELVLDDIVAMQTALVHAQFETIHPFPDGNGRVGRAMIHALLQRRGLTDAAVLPVSMVLATLGDRYVDGLTKFREGDVLAWISFFVEAAQVATTKAAELADSVAALEAEWMDKVNHHRTAQEASCHAFGHGAHREVRTGDFIDKHGPRCSRFTHRRWHST | not soluble
MLRFRCILSTSRSIMSGVKEFDYLVIGGGSGGIASARRAREFGVSVGLIESGRLGGTCVNVGCVPKKVMYNCSLHAEFIRDHADYGFDVTLNKFDWKVIKKSRDEYIKRLNGLYESGLKGSSVEYIRGRATFAEDGTVEVNGAKYRGKNTLIAVGGKPTIPNIKGAEHGIDSDGFFDLEDLPSRTVVVGAGYIAVEIAGVLANLGSDTHLLIRYDKVLRTFDKMLSDELTADMDEETNPLHLHKNTQVTEVIKGDDGLLTIKTTTGVIEKVQTLIWAIGRDPLTKELNLERVGVKTDKSGHIIVDEYQNTSAPGILSVGDDTGKFLLTPVAIAAGRRLSHRLFNGETDNKLTYENIATVVFSHPLIGTVGLTEAEAVEKYGKDEVTLYKSRFNPMLFAVTKHKEKAAMKLVCVGKDEKVVGVHVFGVGSDEMLQGFAVAVTMGATKKQFDQTVAIHPTSAEELVTMRGGVKPE | not soluble
SLYCIEEKIEKALGIKEASLVLKNCNIVNVFSSEIIRGDLAIDGDTIIGIGKYKGKTEIDLSNKYVAPGFIDSHVHIESSMVSPKEFARAVISRGTTTIIVDPHEIANVCGMDGIKYMMEETKNMPLDVFFMLSSCVPATSFETSGAVLKAEDLKELIDSDRVLGLGEMMNYPGVLSREEEVLNKLKLAGSYNKIVDGHAPSVRGNELNAYNLAGIKTDHECSSIEEMNEKIRNGMYIAIREGSAAKNLDILIKGVNAKNERRIMFCADDRHPDDILKSGHMDNCVRRAIYNGIENTAAIRMASINAAECYKLERVGAIAPSYKADLVVLEDLKDVKVNMVIKSGEVVFKDNKHLKDMGSKSDITKVSNTVNIKKVSEENLELKLDTDVCSIISVALNSISTKNVKRKVNLSNGIFKCELNYGINKVAVIERHKKSGSIGIGLVENFGLKRGAIASTVAHDSHNIIVLGNNDEDMVKAVNEIERVGGGITISLDGKIIETLELEIAGLMSNKSMEFVAERVSKMINICHNTLGVNKDIQPFMTLAFLALPVIPEIRITDKGVFDVVNFKFL | soluble
MSAQLTDSYGLLEARVTELKGELADAGVQRLQELAEKERLANRLQNLLDLLPGGVIVIDGMGVVREANPAAIDLLGQPLLGMLWRHVISRCFAPREDDGHEVSLKDGRRLSIATRSLDAEPGQLVLLNDLT | not soluble
MAHHHHHHMPTEADLEKIRRERAARYQQLSEAEKPRVEPCPHCHELPYKKEVCPETGIFHNLERHTIVGGAVVQSNIVRSSELMEAIDRSRIRWVESRTQMVRADAVSLNLFQSFVRQLDWSLQRYGILYGKYDASLNLIEVHAIYEPEQHGDAYTFHYLPDKRLPNVDRIAALLGLRRVGAVCTHPPRDIEEMVLSSREILLCAREQSRFGDECVLLTMSPSLTTGRIECQAWQTSPQAVHFYRLGVLREKSDDYSDLESAKYVHSSIPLEVAQQETDEKGHPRVVTMAPSHDIDTRWFTSYVAVQQFESPVVRNLFMRVSRPGMEPPAMINLRNYMEDPKRRKVPLIEKLADFHVLIFLAESVFSVADDMPVIIGAITKQRPAEDAMHYGEVLKLYLEQ | soluble
MIRAVFFDFVGTLLSVEGEAKTHLKIMEEVLGDYPLNPKTLLDEYEKLTREAFSNYAGKPYRPIRDIEEEVMRKLAEKYGFKYPENFWEIHLRMHQRYGELYPEVVEVLKSLKGKYHVGMITDSDTEYLMAHLDALGIKDLFDSITTSEEAGFFKPHPRIFELALKKAGVKGEEAVYVGDNPVKDCGGSKNLGMTSILLDRKGEKREFWDKCDFIVSDLREVIKIVDELNGQ | soluble
MGSDKIHHHHHHMFSYEVIRQFTETEHHLYRYIMDNRDKVMFMRVRELSEVTHVSPASIVRFTRKLGCEGFSEFKVKLKQEATREVKKKTADTVEVLEEFFERTMNRDYDHVLDAAAEIINEADLVVFFGIGTSGILAEYGSRFFSNMKKRTFYIKDPFYPNPGEQFKNKAVMIILSVSGETDQVLEQAQNMQQYGSRIISITNTSHNTLAGLSDVNIPYYVTQEMVDKTNITTQIPVLFLLEAMAKKNYNQEQEE | not soluble
MSLTSVVFLNPGNSTETFWVSYSQFMQAAARDLGLDLRILYAERDPQNTLQQARELFQGRDKPDYLMLVNEQYVAPQILRLSQGSGIKLFIVNSPLTLDQRELIGQSRQNYSDWIGSMVGDDEEAGYRMLKELLHKLGPVPAGHGIELLAFSGLKVTPAAQLRERGLRRALAEHPQVHLRQLVYGEWNRERAYRQAQQLLKRYPKTQLVWSANDEMALGAMQAARELGRKPGTDLLFSGVNSSPEALQALIDGKLSVLEAGHFTLGGWALVALHDDALGLDARRLGGPDWQLSLFQALTPAQARQLLRLGDQVGTRVDFRGLSAQGKPDSYRYPFGLQLLLREGHHHHHH | soluble
MGSDKIHHHHHHMGVVRTDKWLKRYVVQWPKAQVAGEKFELQQKLIISLLKDAFHTDHLDELQQQLLGQGLFLPTDDIELSYRALQDRAIWHLVHKQYTELREKWKGPNVPIYLFPVNTANPTIREQLGMKMGVSYRDKIVLFIGEMTSDQDVQALVTHEYHHCCRLTQLKLYEGTMTLLESMVMEGLAEKAVAEEVGRDALAIWTSRYDKADLHSLWALLLEQRMMKGRDRHYPYLFGGVGGIPEWAGYYLGYRIVDQAMKNDPTLTTTSMMKMEAEAILQRSFSAKRGRAVAVRGREISRDHS | not soluble
MLNSNNHQTEWKWPRLIQIMEIGNSAMKNTMSKTLYMSYNFIARTSGKTYHAPVLVVDCSVNEGWLWMRICHNCLGCLCTGYWAAQRTFATTTGLRLVWL | soluble
GMLAETDEYMAGGKRPARVYRVVNGIAVLPVTGTLVHRLGGMRPFSGMTGYDGIVACLQQAMADSQVRGILLDIDSPGGQAAGAFDCADMIYRLRQQKPVWALCNDTACSAAMLLASACSRRLVTQTSRIGSIGVMMSHVSYAGHLAQAGVDITLIYAGAHKVDGNQFEALPAEVRQDMQQRIDAARRMFAEKVAMYTGLSVDAVTGTEAAVFEGQSGIEAGLADELINASD | not soluble
MDNLLNEKKLTIFTSNEIQDNLNRVLKDYEQNGIIGLNGYLNQANRISLLNELEIMQKDAEQDIARYWNNKIIHFYSKDPLKPESVDREYVTEPYFQASSNKAHVFYEVIDNMRVVNRIGHGMHLINRYPMMQRAVYDSPVLLDLLKGIGFKKPICHLSVYIPKYPNGIGSEVRPHQESTFAFTEPQSVVVLWVALEDALIENACMYGVLGSNHWPLKWVSKVDRETKTRHFEQVHQLHIPDFMTEREFYTALEVKAGDALLFHGNFVHCSPMNTSKNSRKALSFQFIETYEVDYPETNWLYPPNKVYLYLEHHHHHH | not soluble
MKPGIVKFALNVWPPFWGAGIKILHISEDFRTVKVRLKLRWWNKNANRTQYGGSIFSLTDPIYSLMLMGILREEYYVWDKEASINFIKPGQSDLFAEFEITDGMLDEIYQMTRNGEKCFPEFITHVKDKQGNVVSEVQRKLYVRKLEHHHHHH | soluble
MGHHHHHHSHDVPEMPSIPNPFPELCCSPFTSVLSADLFPKANSRKKQVIKVYSEDETSRALDVPSDITARDVCQLLILKNHYIDDHSWTLFEHLPHIGVERTIEDHELVIEVLSNWGIEEENKLYFRKNYAKYEFFKNP | not soluble
SLAAVQVVGSWPSVQPREAPREAIPERGNGFRLLSARLCALRPDDSSSARTEIHLLFDQLISENYSEGSGVAPEDVSALLVQACRLVPLNQNHLVSKVSQLIHHLLNRLQVIVDEQHLDFLLAYTISAIHQCSSWTHREILQALAALVYCNGSKCQKYLPELLGNTGLLMKLSDLAQSDPEVRRAAVHCMANLCLSVPGQPYLEEPYQNVCFQAFLTILQSPKSSDMDDITFCMLLQNALKGIQSLLNGGRMKLTQTDELGALLAVLKKFMFHGLPGLNIEMPTVLYPTPLPQYDGRTPIK | soluble
MGSDKIHHHHHHMNKKFLLTGASGFVGKHLYSINPSQFRCVVREDGERFPDAYKVNGINSKTDWTDSFLDIDCIIHLAGLAHSNNNRNDEYRETNFLGTLCLAQQASKSGVKRFVFVSSIGVNGNATLEKPFSIFDEPKPLNSYTNSKYDAEIGLKKIAAETGLEVVIVRPTLVYGPNAPGNFGLLTKLVKKLPVLPFGLANNKRDFIAVQNLADLLITCATHPNAAGHMFLASDMETVSIKQFTNAIADGLGKKVFQFPIPVSLMRLTGKLMRKSAMVEQLLGNLQVDSSNIKEVLDWTPPLTMKQAMTTLCDSGKSS | not soluble
MSLGNKSEAYEQYIQQIKEENGINNFFDRYPYLLKQINREVRLIEESYSLLFDRFLKDLSELRSCFNITEPLSNVEFSLGDSHSQKQTVVKIEFKGKSIYYKPKSYDSYNILLELISLLKSNNIPSFSLPESLIKADYCWQLGVDYINSNNDEVKRIYFKYGVLAAFSEIFSITDLHMENVIVSGGDLYLIDVETFFQRKLNVQTNNFEGITVDTYQRIYETSLSNGLFPVQFEKNSAPNISGISGKGGKRKKGKYELINKNRGDMKLVKTDYFQEDSYNIPTLNEKMVEPLDYANEVIAGFRECYTFLMTQRAKVKKILYGFPKLRTRAIFRNTSDYGKFLQASTNPKYLFSEKKRENLFSILYESKHIEQFIVDSEIKDLMNGDIPYFSMDPNGNVYNSLGTVIGNLGKTTSLFDNIATLNDERMKFTCELIGIVLKKPIKHWERKDGKSYYFPSISSKQSFNEEILRQREGHHHHHH | not soluble
LASIFVDVSSVEPGVQLTVKFLGKPIFIRRRTEADIELGRSVQLGQLVDTNARNANIDAGAEATDQNRTLDEAGEWLVMWGVCTHLGCVPIGGVSGDFGGWFCPCHGTHYDSAGRIRKGPAPENLPIPLAKFIDETTIQLG | soluble
MASEPIQITPNLAIPPGEIVERFVRASGAGGQNVNKVSTAVELRFDVAGSPSLPEPLRARLLSRRDRRMTADGVLVIDAQRFRTQDRNREDARERLAEIINACLSVPKRRVATKPSHGAKLRRLDAKRERSQIKRGRSASHWELEHHHHHH | soluble
MSLNRLDVMILKILAEADRPMGSGRIAELIEERFGEKYSTRSIRYRLQKMEERGLIRRVRRNDRVVGAEITEWGLTMLKTETSSERVGMYISLIEEMAYRCSFDPEVMKGKVVCNISVVKREHLDDFLDAVVETYRAGISPSPLVAVKEDLSDHDVEVGEDEVAVLTVCSVTIDGVLINRGIPVTPVCGGLLYLEDGEPLGMQEYIKYEGSTVDPLHVFVAKGMTQVERVLETGTGLVPANVRYVPWAALEDVEHVERELEKADIRGIVDVPKVEGEILGIPLPPRSLGIVAYGGLVPVALLEERGISTRTYPTRTLVEYSSLEDARRYEGHHHHHH | soluble
